The values that follow come from patent publication US7375083B2, “Pharmaceutical compositions for prevention of overdose or abuse” (Shire LLC, priority 2003, dated 2008).

Molecules are shown by their SMILES. Where a SMILES comes first, the peptide text is derived from it. The star is where a group is joined. X1 = COc1ccc2c3c1O[C@H]1C(O*)=CC[C@H]4[C@@H](C2)N(C)CC[C@]314

A short description of data set [1]: Oral bioavailability of hydrocodone conjugates in rats, LC/MS/MS. To be noted: for Percent Decrease 1 mg/kg vs. 5 mg/kg AUC / Percent Decrease 1 mg/kg vs. 5 mg/kg Cmax: oral bioavailability; for hydrocodone plus hydromorphone concentration / AUC (ng/ml h) 0-8 h / Cmax / Percent HC (AUC) / Percent HC (Cmax) / Peak levels and bioavailability: oral; for AUC (ng/ml h) 0-8 h / Cmax: hydrocodone plus hydromorphone; for Percent HC (AUC) / Percent HC (Cmax): relative to hydrocodone bitartrate; for Peak levels and bioavailability: rat, 5 mg/kg.

The nature of data set [2]: Intranasal bioavailability of hydrocodone conjugates in rats, LC/MS/MS. To be noted: intranasal, 1 mg/kg dose; for AUC (ng/ml h) 0-1 h / Cmax: hydrocodone plus hydromorphone; for Percent HC (AUC) / Percent HC (Cmax): relative to hydrocodone bitartrate.
A short description of data set [3]: Intravenous bioavailability of hydrocodone conjugates in rats, LC/MS/MS. To be noted: intravenous, 1 mg/kg dose; for AUC (ng/ml h) 0-1 h / Cmax: hydrocodone plus hydromorphone; for Percent HC (AUC) / Percent HC (Cmax): relative to hydrocodone bitartrate.

Take `CC[C@H](C)[C@H](NC(=O)[C@H](CC(=O)O)NC(=O)[C@@H](N)CC(=O)O)C(=O)OC1=CC[C@H]2[C@H]3Cc4ccc(OC)c5c4[C@@]2(CCN3C)[C@H]1O5` [DDI-HC, Asp-Asp-Ile-Hydrocodone]: in data set [1], the “Percent Decrease 1 mg/kg vs. 5 mg/kg AUC” value came out at 9%. Besides, the “Percent Decrease 1 mg/kg vs. 5 mg/kg Cmax” value in data set [1] was found to be 9%. The “hydrocodone plus hydromorphone concentration” value in data set [1] (1 mg/kg dose, 0.5 Hours) came to 14.9 ng/mL; in data set [1] (1 mg/kg dose, 1.5 Hours), 5 ng/mL; in data set [1] (1 mg/kg dose, 3 Hours), 0 ng/mL; in data set [1] (1 mg/kg dose, 5 Hours), 0 ng/mL; in data set [1] (1 mg/kg dose, 8 Hours), 0 ng/mL; in data set [1] (5 mg/kg dose, 0.5 Hours) it was 115 ng/mL. Besides, the “hydrocodone plus hydromorphone concentration” value in data set [1] (5 mg/kg dose, 1.5 Hours) worked out at 19 ng/mL; in data set [1] (5 mg/kg dose, 3 Hours), 11 ng/mL; in data set [1] (5 mg/kg dose, 5 Hours), 4 ng/mL; in data set [1] (5 mg/kg dose, 8 Hours) it was 3.1 ng/mL; in data set [2] (5 Minutes), 281 ng/mL; in data set [2] (15 Minutes) it was 121 ng/mL. Moreover, the “hydrocodone plus hydromorphone concentration” value in data set [2] (30 Minutes) was found to be 64 ng/mL; in data set [2] (60 Minutes), 16 ng/mL. For the same compound, the results for the “AUC (ng/ml h) 0-8 h” value in data set [1] (1 mg/kg dose) and in data set [1] (5 mg/kg dose) were 17.4 ng·h/mL and 145 ng·h/mL, respectively. In addition, the values for the peak concentration (Cmax) in data set [1] (1 mg/kg dose), in data set [1] (5 mg/kg dose) and in data set [2] were 14.9 ng/mL, 115 ng/mL and 281 ng/mL, respectively. The “Percent HC (AUC)” value in data set [1] (1 mg/kg dose) is given as 124%; in data set [1] (5 mg/kg dose), 113%; in data set [2], 31%. The results for the “Percent HC (Cmax)” value in data set [1] (1 mg/kg dose), in data set [1] (5 mg/kg dose) and in data set [2] were 173%, 158% and 51%, respectively. Besides, in data set [1], the “Peak levels and bioavailability” value is given as “substantially decreased”. For the same compound, the “AUC (ng/ml h) 0-1 h” value in data set [2] turned out to be 88 ng·h/mL.
Take `COc1ccc2c3c1O[C@H]1C(OC(=O)[C@H](Cc4ccccc4)NC(=O)[C@H](Cc4ccccc4)NC(=O)[C@H](Cc4ccccc4)NC(=O)[C@H](CCC(=O)O)NC(=O)[C@@H](N)CCC(=O)O)=CC[C@H]4[C@@H](C2)N(C)CC[C@]314` [EEFFF[SEQ ID NO: 3]-HC, Glu-Glu-Phe-Phe-Phe[SEQ ID NO: 3]-Hydrocodone] (H-EEFFF-X1): the “hydrocodone plus hydromorphone concentration” value in data set [1] (1 mg/kg dose, 0.5 Hours) was determined as 11.3 ng/mL; in data set [1] (1 mg/kg dose, 1.5 Hours) it was 4.1 ng/mL; in data set [1] (1 mg/kg dose, 3 Hours), 1.2 ng/mL; in data set [1] (1 mg/kg dose, 5 Hours), 1.2 ng/mL; in data set [1] (1 mg/kg dose, 8 Hours), 1.2 ng/mL; in data set [2] (5 Minutes) it was 34 ng/mL. Besides, the “hydrocodone plus hydromorphone concentration” value in data set [2] (15 Minutes) was 21 ng/mL; in data set [2] (30 Minutes), 24 ng/mL; in data set [2] (60 Minutes), 15 ng/mL; in data set [3] (5 Minutes), 135 ng/mL; in data set [3] (15 Minutes) it was 77 ng/mL; in data set [3] (30 Minutes) it was 140 ng/mL. In addition, the “hydrocodone plus hydromorphone concentration” value in data set [3] (60 Minutes) came out at 85 ng/mL. Moreover, the “AUC (ng/ml h) 0-8 h” value in data set [1] (1 mg/kg dose) came to 20.7 ng·h/mL. The results for the Cmax in data set [1] (1 mg/kg dose), in data set [2] and in data set [3] were 11.3 ng/mL, 34 ng/mL and 135 ng/mL, respectively. Further, the entries for the “Percent HC (AUC)” value in data set [1] (1 mg/kg dose), in data set [2] and in data set [3] were 108%, 14% and 62%, respectively. Moreover, the results for the “Percent HC (Cmax)” value in data set [1] (1 mg/kg dose), in data set [2] and in data set [3] were 119%, 13% and 75%, respectively. The figures for the “AUC (ng/ml h) 0-1 h” value in data set [2] and in data set [3] were 21 ng·h/mL and 107 ng·h/mL, respectively.
For the compound `CC[C@H](C)[C@H](NC(=O)[C@H](Cc1ccccc1)NC(=O)[C@H](Cc1ccccc1)NC(=O)[C@H](CCC(=O)O)NC(=O)[C@@H](N)CCC(=O)O)C(=O)OC1=CC[C@H]2[C@H]3Cc4ccc(OC)c5c4[C@@]2(CCN3C)[C@H]1O5` [EEFFI[SEQ ID NO: 5]-HC, Glu-Glu-Phe-Phe-Ile[SEQ ID NO: 5]-Hydrocodone] (H-EEFFI-X1), the “Percent Decrease 1 mg/kg vs. 5 mg/kg AUC” value in data set [1] stood at 70%. Also, in data set [1], the “Percent Decrease 1 mg/kg vs. 5 mg/kg Cmax” value was 65%. For the same compound, the “hydrocodone plus hydromorphone concentration” value in data set [1] (1 mg/kg dose, 0.5 Hours) came out at 12.9 ng/mL; in data set [1] (1 mg/kg dose, 1.5 Hours), 5.2 ng/mL; in data set [1] (1 mg/kg dose, 3 Hours) it was 4.2 ng/mL; in data set [1] (1 mg/kg dose, 5 Hours) it was 0 ng/mL; in data set [1] (1 mg/kg dose, 8 Hours), 1.6 ng/mL; in data set [1] (5 mg/kg dose, 0.5 Hours), 44 ng/mL. For the same compound, the “hydrocodone plus hydromorphone concentration” value was determined as 6.5 ng/mL in data set [1] (5 mg/kg dose, 1.5 Hours); 5.7 ng/mL in data set [1] (5 mg/kg dose, 3 Hours); 4.2 ng/mL in data set [1] (5 mg/kg dose, 5 Hours); 4.5 ng/mL in data set [1] (5 mg/kg dose, 8 Hours); 89 ng/mL in data set [3] (5 Minutes); 76 ng/mL in data set [3] (15 Minutes). In addition, the “hydrocodone plus hydromorphone concentration” value in data set [3] (30 Minutes) is 78 ng/mL; in data set [3] (60 Minutes), 66 ng/mL. Moreover, the “AUC (ng/ml h) 0-8 h” value turned out to be 25.8 ng·h/mL in data set [1] (1 mg/kg dose) and 68 ng·h/mL in data set [1] (5 mg/kg dose). The highest concentration (Cmax) is 12.9 ng/mL in data set [1] (1 mg/kg dose), 44 ng/mL in data set [1] (5 mg/kg dose) and 89 ng/mL in data set [3]. Further, the entries for the “Percent HC (AUC)” value in data set [1] (1 mg/kg dose), in data set [1] (5 mg/kg dose) and in data set [3] were 135%, 41% and 38%, respectively. Also, the “Percent HC (Cmax)” value in data set [1] (1 mg/kg dose) was 136%; in data set [1] (5 mg/kg dose), 47%; in data set [3], 44%. For the same compound, the “Peak levels and bioavailability” value in data set [1] was “substantially decreased”. Moreover, the “AUC (ng/ml h) 0-1 h” value in data set [3] worked out at 66 ng·h/mL.
`CC[C@H](C)[C@H](NC(=O)[C@H](Cc1ccccc1)NC(=O)[C@H](Cc1ccccc1)NC(=O)[C@H](Cc1ccc(O)cc1)NC(=O)[C@@H](N)Cc1ccc(O)cc1)C(=O)OC1=CC[C@H]2[C@H]3Cc4ccc(OC)c5c4[C@@]2(CCN3C)[C@H]1O5` [YYFFI[SEQ ID NO: 3]-HC] (H-YYFFI-X1): in data set [2] (5 Minutes), the “hydrocodone plus hydromorphone concentration” value was 28 ng/mL. In addition, the “hydrocodone plus hydromorphone concentration” value in data set [2] (15 Minutes) is 27 ng/mL. Further, in data set [2] (30 Minutes), the “hydrocodone plus hydromorphone concentration” value is 16 ng/mL. Besides, the “hydrocodone plus hydromorphone concentration” value in data set [2] (60 Minutes) stood at 21 ng/mL. For the same compound, in data set [2], the “AUC (ng/ml h) 0-1 h” value is 20 ng·h/mL, the highest concentration (Cmax) was 28 ng/mL, the “Percent HC (AUC)” value is on record as 100% and the “Percent HC (Cmax)” value is given as 5%.
